Measurements published in publication PMC11931667, “A new view of missense mutations in α‐mannosidosis using molecular dynamics conformational ensembles” (Protein Science : A Publication of the Protein Society, 2025).

Biological target: the molecule itself
Assay: native gel or EMSA; PAGE run under native conditions and Western blot with anti-His IgG of hLAMAN expressed in K. phaffii for the indicated time periods; single band at approx. 230 kDa

B1: Human lysosomal α‐mannosidase (enzyme, UniProt O00754 50-1011, looked up)
chain: GGYETCPTVQPNMLNVHLLPHTHDDVGWLKTVDQYFYGIKNDIQHAGVQYILDSVISALLADPTRRFIYVEIAFFSRWWHQQTNATQEVVRDLVRQGRLEFANGGWVMNDEAATHYGAIVDQMTLGLRFLEDTFGNDGRPRVAWHIDPFGHSREQASLFAQMGFDGFFFGRLDYQDKWVRMQKLEMEQVWRASTSLKPPTADLFTGVLPNGYNPPRNLCWDVLCVDQPLVEDPRSPEYNAKELVDYFLNVATAQGRYYRTNHTVMTMGSDFQYENANMWFKNLDKLIRLVNAQQAKGSSVHVLYSTPACYLWELNKANLTWSVKHDDFFPYADGPHQFWTGYFSSRPALKRYERLSYNFLQVCNQLEALVGLAANVGPYGSGDSAPLNEAMAVLQHHDAVSGTSRQHVANDYARQLAAGWGPCEVLLSNALARLRGFKDHFTFCQQLNISICPLSQTAARFQVIVYNPLGRKVNWMVRLPVSEGVFVVKDPNGRTVPSDVVIFPSSDSQAHPPELLFSASLPALGFSTYSVAQVPRWKPQARAPQPIPRRSWSPALTIENEHIRATFDPDTGLLMEIMNMNQQLLLPVRQTFFWYNASIGDNESDQASGAYIFRPNQQKPLPVSRWAQIHLVKTPLVQEVHQNFSAWCSQVVRLYPGQRHLELEWSVGPIPVGDTWGKEVISRFDTPLETKGRFYTDSNGREILERRRDYRPTWKLNQTEPVAGNYYPVNTRIYITDGNMQLTVLTDRSQGGSSLRDGSLELMVHRRLLKDDGRGVSEPLMENGSGAWVRGRHLVLLDTAQAAAAGHRLLAEQEVLAPQVVLAPGGGAAYNLGAPPRTQFSGLRRDLPPSVHLLTLASWGPEMVLLRLEHQFAVGEDSGRNLSAPVTLNLRDLFSTFTITRLQETTLVANQLREAASRLKWTTNTGPTPHQTPYQLDPANITLEPMEIRTFLASVQWKEVDG
notes: human lysosomal alpha-mannosidase (hLAMAN, EC 3.2.1.24), gene MAN2B1; That vector probably adds the alpha-factor secretion signal; it speaks of a homodimer of the polypeptides A-E, (A-E)2; also called hLAMAN; MAN2B1; source: K. phaffii X33 (pPICZalpha), methanol-induced; aliquots of pellet and supernatant analysed, not purified
- stoichiometry N: 2
